# Laboratory results: article PMC7771244
# Key:
# [1] = molecular target: 5FW-BPTF (bromodomain of the bromodomain- and PHD finger-containing transcription factor, labelled with 5-fluorotryptophan) (human); test: NMR titration
# [2] = molecular target: 5FW-labeled BRD2(2) (second bromodomain of BRD2) (human); test: NMR titration
# [3] = molecular target: 5FW-CECR2 (bromodomain of CECR2, labelled with 5-fluorotryptophan) (human); test: NMR titration
# [4] = molecular target: 5FW-labeled BRD4(2) (second bromodomain of BRD4) (human) (UniProt O60885); test: NMR titration
# [5] = molecular target: GST-BPTF (glutathione S-transferase-tagged BPTF, not labeled with fluorine) (human); test: SPR
# [6] = molecular target: His9-tagged BPTF bromodomain (human); test: AlphaScreen or HTRF
Substance,Kd [1],other results
"H2A.Z I K4ac,K13ac N-terminal tail peptide",780 µM,
"H2A.Z I K4ac,K15ac N-terminal tail peptide",630 µM,
"H2A.Z I K7ac,K13ac N-terminal tail peptide",520 µM,"Kd [2]: 680 µM; fold higher affinity than for H2A.Z II K7ac,K13ac [2]: 2 fold; Kd [3]: 130 µM; fold higher affinity than for H2A.Z II K7ac,K13ac [4]: 2 fold"
"H2A.Z I K11ac,K13ac N-terminal tail peptide",1440 µM,
"H2A.Z II K4ac,K7ac N-terminal tail peptide",660 µM,
"H2A.Z II K4ac,K11ac N-terminal tail peptide",760 µM,
"H2A.Z II K4ac,K13ac N-terminal tail peptide",790 µM,
"H2A.Z II K4ac,K15ac N-terminal tail peptide",430 µM,
"H2A.Z II K7ac,K11ac N-terminal tail peptide",780 µM,
"H2A.Z II K7ac,K13ac N-terminal tail peptide",310 µM,Kd [5]: 195 µM; IC50 [6]: 830 µM
"H2A.Z II K11ac,K13ac N-terminal tail peptide",790 µM,
